Measurements from paper PMC11608337 (Nature Communications, 2024).

T1: RING domain of IRF2BP2 (residues 498-578) (UniProt Q7Z5L9 498-578)
T1 sequence (looked up): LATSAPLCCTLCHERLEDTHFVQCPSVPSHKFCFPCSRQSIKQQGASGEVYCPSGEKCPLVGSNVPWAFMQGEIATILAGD


Target: T1, RING domain of IRF2BP2 (residues …)
Assay: ITC

Row | Binder | Kd | fold increase of binding affinity (KD) over the shorter peptide
1 | RASVIKKT [IRF2 peptide (residues 331-338, RASVIKKT)] | 6.45 µM | –
2 | RSSVITSA [RxSVI motif-containing peptide of ZBTB16 (residues 285-292, RSSVITSA)] | 12.6 µM | –
3 | RGSVITSA [mouse ZBTB16 peptide (residues 285-292, RGSVITSA)] | 16.8 µM | –
4 | RSVLVHAG [NFAT1 peptide (residues 782-789, RSVLVHAG)] | 514 µM | –
5 | RPDRETRASVIKKTSDITQ (peptide, UniProt P14316 325-343, looked up) [IRF2-L (residues 325-343)] | – | 3.9 fold
6 | ERQQNRPSVITCASAG (peptide, UniProt Q14135 156-171, looked up) [VGLL4-L (residues 156-171)] | – | 2.1 fold
7 | GPGTPTRSSVITSARELHYG (peptide, UniProt Q05516 279-298, looked up) [ZBTB16-L (residues 279-298)] | 7.21 µM | –
